Assays:
[1] = target: BACE1 (β-site APP cleaving enzyme 1), native form BACE1WT, P56817
[2] = target: BACE1-myc (myc-tagged at the C-terminus version of BACE1), P56817
[3] = target: BACE1Ala (BACE1 with the seven acetylated lysine residues mutated to alanine), P56817
Chain of BACE1Ala (BACE1 with the seven acetylated lysine residues mutated to alanine), P56817 (P56817 other isoform, or with tags, fused parts or gaps, change not shown): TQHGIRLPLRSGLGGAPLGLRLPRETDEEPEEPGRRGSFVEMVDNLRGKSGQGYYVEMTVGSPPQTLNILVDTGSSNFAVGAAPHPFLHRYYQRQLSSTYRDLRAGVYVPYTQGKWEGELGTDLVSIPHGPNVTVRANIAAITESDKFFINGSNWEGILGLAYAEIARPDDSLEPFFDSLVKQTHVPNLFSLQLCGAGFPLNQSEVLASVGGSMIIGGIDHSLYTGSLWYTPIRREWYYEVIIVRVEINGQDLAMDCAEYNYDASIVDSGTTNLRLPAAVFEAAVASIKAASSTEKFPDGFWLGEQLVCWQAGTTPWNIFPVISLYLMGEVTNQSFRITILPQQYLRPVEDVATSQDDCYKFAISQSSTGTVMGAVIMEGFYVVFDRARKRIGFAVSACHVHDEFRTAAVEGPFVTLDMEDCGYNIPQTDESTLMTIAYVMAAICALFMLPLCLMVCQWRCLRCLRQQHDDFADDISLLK

Chain of BACE1 (β-site APP cleaving enzyme 1), native form BACE1WT, P56817 (P56817 46-501): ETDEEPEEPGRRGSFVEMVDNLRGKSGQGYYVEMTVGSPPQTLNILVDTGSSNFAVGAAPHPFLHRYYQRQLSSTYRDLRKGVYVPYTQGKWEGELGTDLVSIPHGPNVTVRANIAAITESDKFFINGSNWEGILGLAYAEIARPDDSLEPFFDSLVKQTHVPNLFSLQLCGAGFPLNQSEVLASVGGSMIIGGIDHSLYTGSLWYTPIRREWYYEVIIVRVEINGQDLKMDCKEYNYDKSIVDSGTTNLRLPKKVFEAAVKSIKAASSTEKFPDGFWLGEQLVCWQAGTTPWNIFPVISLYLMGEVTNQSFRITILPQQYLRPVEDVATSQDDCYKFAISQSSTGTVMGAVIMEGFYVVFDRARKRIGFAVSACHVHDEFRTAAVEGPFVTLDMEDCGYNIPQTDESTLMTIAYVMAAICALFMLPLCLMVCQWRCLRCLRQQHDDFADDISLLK
Chain of BACE1-myc (myc-tagged at the C-terminus version of BACE1), P56817 (P56817 46-501): as above

B1: purified recombinant HAT fragment of p300 (histone acetyl transferase domain of recombinant CBP/p300) (protein)
chain: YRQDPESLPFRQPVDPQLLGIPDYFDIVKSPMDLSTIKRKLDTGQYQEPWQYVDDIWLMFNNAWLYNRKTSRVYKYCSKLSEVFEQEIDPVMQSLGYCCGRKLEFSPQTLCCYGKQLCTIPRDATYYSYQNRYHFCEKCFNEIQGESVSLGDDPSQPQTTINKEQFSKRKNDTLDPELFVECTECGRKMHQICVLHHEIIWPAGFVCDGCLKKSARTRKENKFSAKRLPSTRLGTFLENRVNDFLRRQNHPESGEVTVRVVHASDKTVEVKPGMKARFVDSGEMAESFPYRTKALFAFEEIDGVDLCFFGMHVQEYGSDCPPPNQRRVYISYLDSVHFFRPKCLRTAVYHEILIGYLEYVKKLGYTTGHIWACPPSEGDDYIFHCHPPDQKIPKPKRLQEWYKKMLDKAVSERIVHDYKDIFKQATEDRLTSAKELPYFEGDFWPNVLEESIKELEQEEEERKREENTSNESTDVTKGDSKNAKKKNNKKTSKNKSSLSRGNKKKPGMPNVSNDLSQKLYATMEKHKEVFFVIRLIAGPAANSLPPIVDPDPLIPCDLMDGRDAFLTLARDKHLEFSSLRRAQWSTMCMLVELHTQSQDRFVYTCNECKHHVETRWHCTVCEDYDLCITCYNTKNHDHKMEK
In the case of B1, the “in vitro acetylation ([3H]Acetyl-CoA incorporation into BACE1, scintillation counting)” value (shortened to “in vitro acetylation”) [1] is reported as “resulted in acetylation of BACE1WT”, the “in vitro acetylation” value [2] is reported as “BACE1 can be acetylated in vitro, provided that is incubated in the presence of an enzymatically active acetyltransferase” and the “in vitro acetylation” value [3] is reported as “but not BACE1Ala”.
